The source of these data is paper PMC11996885, “Identification of potent biparatopic antibodies targeting FGFR2 fusion–driven cholangiocarcinoma” (The Journal of Clinical Investigation, 2025).

In general, koff refers to the rate constant with which the complex falls apart. As a reminder, the kon is a measure of how fast the partners come together.

Assay [1] addresses T1, hFGFR2 ECD 22-378 His-tag (Homo sapiens, UniProt P21802-3, biotin in the epitope binning only (Abcam Biotinylation Kit)).
T1 construct: human FGFR2 extracellular domain, residues 22-378; The antigen of the MSD-SET assay and the FGFR2 ECD of the SEC-MALS experiment are not described; also called hFGFR2 ECD AA22-AA378 His-tag; antigen; source: bought: SinoBiological
Description: BLI; Octet RED96e, 25°C, 1x kinetic buffer; antibodies captured on Anti-Human Fc capture biosensor at 0.5 μg/mL; hFGFR2 ECD 22-378 His-tag as analyte, 2-fold dilutions from 100 nM; 1:1 binding model; apparent affinity. The conditions noted are these: both partners purified. A general note: In BLI a coated tip is dipped into the sample, and binding shifts an interference pattern.

Assay [2] deals with T2, full-length FGFR2-BICC1 on NIH3T3 cells (Homo sapiens, UniProt P21802-3, chimera).
T2 construct: FGFR2 part of the fusion, from its N-terminus with the extracellular domain to the breakpoint; the printed Gln361 fits the IIIb isoform (FGFR2b); BICC1 part of the fusion; also called FL; source: NIH3T3, transfected, on cells
T2 sequence (P21802 whole entry, looked up, change not shown, the tested form may be a part, canonical isoform): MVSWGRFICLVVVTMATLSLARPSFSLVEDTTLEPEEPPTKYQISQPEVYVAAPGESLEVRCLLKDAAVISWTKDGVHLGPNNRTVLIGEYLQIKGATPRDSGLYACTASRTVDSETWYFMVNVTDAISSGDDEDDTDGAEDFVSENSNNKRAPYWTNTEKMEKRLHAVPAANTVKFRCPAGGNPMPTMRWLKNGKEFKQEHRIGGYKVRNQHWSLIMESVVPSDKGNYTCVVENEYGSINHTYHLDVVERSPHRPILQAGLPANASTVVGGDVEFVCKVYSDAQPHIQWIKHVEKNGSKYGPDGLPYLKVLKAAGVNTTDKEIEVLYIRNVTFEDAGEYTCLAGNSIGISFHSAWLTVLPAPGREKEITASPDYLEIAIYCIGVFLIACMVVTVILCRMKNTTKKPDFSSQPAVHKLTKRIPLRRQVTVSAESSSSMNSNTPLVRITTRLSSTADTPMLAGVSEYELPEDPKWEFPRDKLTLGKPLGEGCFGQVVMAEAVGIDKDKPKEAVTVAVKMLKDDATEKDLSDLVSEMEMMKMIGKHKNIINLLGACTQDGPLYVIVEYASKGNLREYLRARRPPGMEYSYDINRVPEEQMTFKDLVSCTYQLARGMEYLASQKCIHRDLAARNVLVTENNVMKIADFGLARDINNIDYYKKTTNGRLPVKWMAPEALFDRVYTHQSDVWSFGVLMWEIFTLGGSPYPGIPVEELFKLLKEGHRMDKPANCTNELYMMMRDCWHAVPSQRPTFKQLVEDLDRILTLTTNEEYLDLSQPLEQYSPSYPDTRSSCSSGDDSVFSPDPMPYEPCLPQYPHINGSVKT
In words: flow cytometry on cells; NIH3T3 cells expressing full-length FGFR2-BICC1 or its D1, D2, D3 or D2+D3 deletion variants, parental antibody A-F at 10 μg/mL in 1x PBS (Mg2+ free), 1.5 hours at room temperature; anti-human IgG secondary antibody. The conditions noted are these: one partner purified.

Assay [3] addresses T3, FGFR2 on SNU16 cells (FGFR2 amplification) (Homo sapiens (SNU-16, endogenous), UniProt P21802-3).
T3 construct: FGFR2 endogenous on SNU16 cells; source: endogenous, SNU16 cells
In words: flow cytometry on cells; SNU-16 cells incubated with serial dilutions of parental antibody A-F in 1x PBS (Mg2+ free), 1.5 hours at room temperature; anti-human IgG secondary antibody; fit with a ligand-binding quadratic equation; apparent Kd. Conditions: one partner purified. For orientation: A flow cytometer gives signals particle by particle.

For assay [4], the target named is T4, hFGFR2 ECD 22-378 His-tag (human, UniProt P21802-3, biotin (Abcam Biotinylation Kit) in the epitope binning only).
T4 construct: human FGFR2 extracellular domain, residues 22-378, SinoBiological 16485-H08H; also called hFGFR2 ECD AA22-AA378 His-tag; source: bought: SinoBiological
T4 sequence (P21802 other isoform, or with tags, fused parts or gaps): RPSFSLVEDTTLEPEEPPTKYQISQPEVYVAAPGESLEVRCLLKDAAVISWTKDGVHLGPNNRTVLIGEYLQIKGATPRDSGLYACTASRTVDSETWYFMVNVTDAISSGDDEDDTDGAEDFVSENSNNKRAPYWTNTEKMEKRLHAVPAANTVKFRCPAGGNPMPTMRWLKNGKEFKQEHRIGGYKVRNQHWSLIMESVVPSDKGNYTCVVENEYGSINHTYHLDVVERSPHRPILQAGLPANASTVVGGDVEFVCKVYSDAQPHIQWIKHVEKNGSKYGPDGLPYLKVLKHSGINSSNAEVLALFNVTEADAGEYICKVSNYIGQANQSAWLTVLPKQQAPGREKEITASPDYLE
In words: BLI; Octet RED96e, 25°C, 1,000 rpm, 1x kinetic buffer; antibodies captured on anti-human Fc (AHC) biosensors at 0.5 ug/mL; hFGFR2 ECD 22-378 His-tag as analyte, 7 2-fold dilutions from 100 nM; association 300 s, dissociation 600 s; 1:1 model, global fit; apparent Kd for the biparatopic antibodies. Conditions: both partners purified.

Assay [5] deals with T5, hFGFR2 ECD 22-378 His-tag (Homo sapiens, UniProt P21802-3).
T5 construct: FGFR2, human, extracellular domain residues 22-378 (SinoBiological 16485-H08H); Analyte of the BLI kinetics; also called hFGFR2 ECD AA22-AA378 His-tag; source: bought: SinoBiological
Description: BLI; Octet RED96e, 25 C, 1,000 rpm, 1x kinetic buffer; antibody captured on anti-human Fc (AHC) biosensor at 0.5 ug/mL; hFGFR2 ECD 22-378 His-tag as analyte, 7 two-fold dilutions from 100 nM; 1:1 model, global fit; apparent. The conditions noted are these: both partners purified.

T3 sequence (P21802 22-821): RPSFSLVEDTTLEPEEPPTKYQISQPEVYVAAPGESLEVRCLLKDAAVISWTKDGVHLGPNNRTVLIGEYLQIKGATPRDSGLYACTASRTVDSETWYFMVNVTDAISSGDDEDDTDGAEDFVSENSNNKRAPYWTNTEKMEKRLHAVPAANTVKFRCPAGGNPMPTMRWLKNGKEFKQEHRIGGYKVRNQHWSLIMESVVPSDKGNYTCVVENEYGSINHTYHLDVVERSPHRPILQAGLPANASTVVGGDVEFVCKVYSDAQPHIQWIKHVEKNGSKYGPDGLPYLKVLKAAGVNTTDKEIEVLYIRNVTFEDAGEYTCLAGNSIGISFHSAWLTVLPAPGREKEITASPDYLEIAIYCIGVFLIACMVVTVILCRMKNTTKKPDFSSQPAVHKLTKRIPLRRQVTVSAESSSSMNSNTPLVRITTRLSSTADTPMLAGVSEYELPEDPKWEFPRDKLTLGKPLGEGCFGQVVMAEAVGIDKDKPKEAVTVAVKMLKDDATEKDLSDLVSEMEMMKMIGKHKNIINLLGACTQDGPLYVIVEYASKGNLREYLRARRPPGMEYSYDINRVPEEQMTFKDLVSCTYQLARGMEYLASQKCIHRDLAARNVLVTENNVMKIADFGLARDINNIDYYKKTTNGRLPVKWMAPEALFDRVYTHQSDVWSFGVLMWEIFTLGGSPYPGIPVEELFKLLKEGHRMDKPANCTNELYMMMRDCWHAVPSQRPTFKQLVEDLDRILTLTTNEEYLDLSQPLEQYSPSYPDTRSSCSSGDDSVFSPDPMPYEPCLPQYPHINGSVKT
T1 sequence (P21802 other isoform, or with tags, fused parts or gaps): as the sequence (P21802 other isoform, or with tags, fused parts or gaps) above

B1: FGFR2 parental antibody A (antibody, V domains shown)
VH: EVQLLESGGGLVQPGGSLRLSCAASGFTFSSYAMSWVRQAPGKGLEWVSAISGSGTSTYYADSVKGRFTISRDNSKNTLYLQMNSLRAEDTAVYYCARVRYNWNHGDWFDPWGQGTLVTVSS
VL: QSVLTQPPSASGTPGQRVTISCSGSSSNIGNNYVSWYQQLPGTAPKLLIYENYNRPAGVPDRFSGSKSGTSASLAISGLRSEDEADYYCSSWDDSLNYWVFGGGTKLTVL
notes: heavy chain of antibody A, IgG1; light chain of antibody A; IgG1; One of the six parental antibodies is the parental antibody of bemarituzumab; also called Ab-A; copies: 2 + 2
Consider B1, for which the binding result in assay [1], in assay [2] and in assay [3] was “binds” throughout.

B2: Anti-FGFR2 parental antibody D (antibody, V domains shown)
VH: EVQLVESGGGLVQPGGSLRLSCAASGFPFTSTGISWVRQAPGKGLEWVGRTHLGDGSTNYADSVKGRFTISADTSKNTAYLQMNSLRAEDTAVYYCARTYGIYDTYDMYTEYVMDYWGQGTLVTVSS
VL: DIQMTQSPSSLSASVGDRVTITCRASQDVDTSLAWYKQKPGKAPKLLIYSASFLYSGVPSRFSGSGSGTDFTLTISSLQPEDFATYYCQQSTGHPQTFGQGTKVEIK
notes: VH of antibody D; VL of antibody D; Full human IgG1; also produced with F405L or K409R in the Fc for Fab-arm exchange; The label 'GE' in some supplementary panels probably means D; also called Ab-D; copies: 2 + 2
Take B2: in assay [4], the Kd is 2.79 nM, the koff stood at 0.000741 s⁻¹ and the on-rate (kon) came out at 282000 M⁻¹ s⁻¹.

B3: FGFR2 parental antibody D (antibody, V domains shown)
VH: EVQLVESGGGLVQPGGSLRLSCAASGFPFTSTGISWVRQAPGKGLEWVGRTHLGDGSTNYADSVKGRFTISADTSKNTAYLQMNSLRAEDTAVYYCARTYGIYDTYDMYTEYVMDYWGQGTLVTVSS
VL: DIQMTQSPSSLSASVGDRVTITCRASQDVDTSLAWYKQKPGKAPKLLIYSASFLYSGVPSRFSGSGSGTDFTLTISSLQPEDFATYYCQQSTGHPQTFGQGTKVEIK
notes: heavy chain of antibody D, IgG1; light chain of antibody D; IgG1; One of the six parental antibodies is the parental antibody of bemarituzumab; also called Ab-D; copies: 2 + 2
Regarding B3, the binding result in assay [2] is listed as “binds”.

B4: anti-FGFR2 parental antibody D (antibody, V domains shown)
VH: EVQLVESGGGLVQPGGSLRLSCAASGFPFTSTGISWVRQAPGKGLEWVGRTHLGDGSTNYADSVKGRFTISADTSKNTAYLQMNSLRAEDTAVYYCARTYGIYDTYDMYTEYVMDYWGQGTLVTVSS
VL: DIQMTQSPSSLSASVGDRVTITCRASQDVDTSLAWYKQKPGKAPKLLIYSASFLYSGVPSRFSGSGSGTDFTLTISSLQPEDFATYYCQQSTGHPQTFGQGTKVEIK
notes: heavy chain of antibody D; light chain of antibody D; IgG1; also called Ab-D; copies: 2 + 2
Turning to B4, the Kd in assay [5] amounted to 2.79 nM.

B5: Anti-FGFR2 parental antibody C (antibody, V domains shown)
VH: QVQLVESGGGLVKPGGSLRLSCAASGFTFSSYALSWVRQAPGKGLEWVGRIRSKIDGGTTDYAAPVKGRFTISRDDSKNTLYLQMNSLKTEDTAVYYCARDRSPSDSSAFAIWGQGTLVTVSS
VL: DIELTQPPSVSVSPGQTASITCSGDNLGSQYVDWYQQKPGQAPVLVIYDDNDRPSGIPERFSGSNSGNTATLTISGTQAEDEADYYCQSWDSLSVVFGGGTKLTVL
notes: VH of antibody C; VL of antibody C; Full human IgG1; The label 'N10' in some supplementary panels probably means C; also called Ab-C; copies: 2 + 2
With B5, in assay [4], the Kd was found to be 7.05 nM, the koff stood at 0.00292 s⁻¹ and the kon came to 417000 M⁻¹ s⁻¹.

B6: FGFR2 parental antibody C (antibody, V domains shown)
VH: QVQLVESGGGLVKPGGSLRLSCAASGFTFSSYALSWVRQAPGKGLEWVGRIRSKIDGGTTDYAAPVKGRFTISRDDSKNTLYLQMNSLKTEDTAVYYCARDRSPSDSSAFAIWGQGTLVTVSS
VL: DIELTQPPSVSVSPGQTASITCSGDNLGSQYVDWYQQKPGQAPVLVIYDDNDRPSGIPERFSGSNSGNTATLTISGTQAEDEADYYCQSWDSLSVVFGGGTKLTVL
notes: heavy chain of antibody C, IgG1; light chain of antibody C; IgG1; One of the six parental antibodies is the parental antibody of bemarituzumab; also called Ab-C; copies: 2 + 2
Consider B6, for which the binding result in assay [2] is “binds”.

B7: anti-FGFR2 parental antibody C (antibody, V domains shown)
VH: QVQLVESGGGLVKPGGSLRLSCAASGFTFSSYALSWVRQAPGKGLEWVGRIRSKIDGGTTDYAAPVKGRFTISRDDSKNTLYLQMNSLKTEDTAVYYCARDRSPSDSSAFAIWGQGTLVTVSS
VL: DIELTQPPSVSVSPGQTASITCSGDNLGSQYVDWYQQKPGQAPVLVIYDDNDRPSGIPERFSGSNSGNTATLTISGTQAEDEADYYCQSWDSLSVVFGGGTKLTVL
notes: heavy chain of antibody C; light chain of antibody C; IgG1; also called Ab-C; copies: 2 + 2
In the case of B7, the Kd in assay [5] came to 7.05 nM.

B8: FGFR2 parental antibody E (antibody, V domains shown)
VH: QVQLVQSGAEVKKPGSSVKVSCKASGYIFTTYNVHWVRQAPGQGLEWIGSIYPDNGDTSYNQNFKGRATITADKSTSTAYMELSSLRSEDTAVYYCARGDFAYWGQGTLVTVSS
VL: DIQMTQSPSSLSASVGDRVTITCKASQGVSNDYAWYQQKPGKAPKLLIYSASYRYTGVPSRFSGSGSGTDFTFTISSLQPEDIATYYCQQHSTTPYTFGQGTKLEIK
notes: heavy chain of antibody E, IgG1; light chain of antibody E; IgG1; One of the six parental antibodies is the parental antibody of bemarituzumab; Also used as the FGFR2 immunoblot reagent (Genscript); also called Ab-E; copies: 2 + 2
Regarding B8, the binding result in assay [1], in assay [2] and in assay [3] was “binds” each time.

B9: Anti-FGFR2 parental antibody B (antibody, V domains shown)
VH: QIQLVQSGPELKKPGETVKISCKASGYTFTDFGMNWMKQAPGKGFKWMGWINTSTGESTYADDFKGRFAFSLETSASTAYLQINNLKNEDMATYFCARNSYYGGSYGYWGQGTTLTVSS
VL: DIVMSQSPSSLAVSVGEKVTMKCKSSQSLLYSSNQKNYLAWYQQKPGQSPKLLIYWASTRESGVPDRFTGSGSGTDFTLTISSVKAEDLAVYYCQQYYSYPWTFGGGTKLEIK
notes: VH of antibody B; VL of antibody B; Full human IgG1; also produced with F405L or K409R in the Fc for Fab-arm exchange; The label 'Gal' in some supplementary panels probably means B; also called Ab-B; copies: 2 + 2
In the case of B9, in assay [4], the Kd came to 5.5 nM, the koff worked out at 0.000316 s⁻¹ and the on-rate (kon) is 53100 M⁻¹ s⁻¹.

B10: anti-FGFR2 parental antibody B (antibody, V domains shown)
VH: QIQLVQSGPELKKPGETVKISCKASGYTFTDFGMNWMKQAPGKGFKWMGWINTSTGESTYADDFKGRFAFSLETSASTAYLQINNLKNEDMATYFCARNSYYGGSYGYWGQGTTLTVSS
VL: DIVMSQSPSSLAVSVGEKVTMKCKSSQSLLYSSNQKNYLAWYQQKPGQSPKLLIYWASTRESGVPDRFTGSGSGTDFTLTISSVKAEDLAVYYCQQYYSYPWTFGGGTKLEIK
notes: heavy chain of antibody B; light chain of antibody B; IgG1; also called Ab-B; copies: 2 + 2
In the case of B10, the Kd in assay [5] turned out to be 5.5 nM.

B11: FGFR2 parental antibody B (antibody, V domains shown)
VH: QIQLVQSGPELKKPGETVKISCKASGYTFTDFGMNWMKQAPGKGFKWMGWINTSTGESTYADDFKGRFAFSLETSASTAYLQINNLKNEDMATYFCARNSYYGGSYGYWGQGTTLTVSS
VL: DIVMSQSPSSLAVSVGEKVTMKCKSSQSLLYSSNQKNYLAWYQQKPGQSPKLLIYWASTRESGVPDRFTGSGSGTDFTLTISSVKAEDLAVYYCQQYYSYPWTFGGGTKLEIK
notes: heavy chain of antibody B, IgG1; light chain of antibody B; IgG1; One of the six parental antibodies is the parental antibody of bemarituzumab; also called Ab-B; copies: 2 + 2
As to B11, in assay [2], the binding result is reported as “binds”.

B12: FGFR2 parental antibody F (antibody, V domains shown)
VH: QVQLVQSGAEVKKPGESLKISCKGSGYSFTNYYIHWVRQMPGKGLEWMGAIYPDNSDTTYSPSFQGQVTISADKSISTAYLQWSSLKASDTAMYYCARGADIWGQGTLVTVSS
VL: DIQMTQSPSSLSASVGDRVTITCRASQDIDPYLSNWYQQKPGKAPKLLIYDASNLQSGVPSRFSGSGSGTDFTLTISSLQPEDFATYYCQQTTSHPYTFGQGTKVEIK
notes: heavy chain of antibody F, IgG1; light chain of antibody F; IgG1; One of the six parental antibodies is the parental antibody of bemarituzumab; also called Ab-F; copies: 2 + 2
In the case of B12, the binding result in assay [1], in assay [2] and in assay [3] was “binds” each time.
